{
  "source": "paper doi:10.1101/2023.07.07.548106",
  "about": "“CXCL17 binds efficaciously to glycosaminoglycans with the potential to modulate chemokine signalling” (bioRxiv, 2023)",
  "proteins": {"B1": {"name": "recombinant human CXCL17 (24-119) (natural protein, UniProt Q6UXB2 24-119, looked up)", "chain": "LNPGVARGHRDRGQASRRWLQEGGQECECKDWFLRAPRRKFMTVSGLPKKQCPCDHFKGNVKKTRHQRHHRKPNKHSRACQQFLKQCQLRSFALPL", "notes": "human CXCL17, residues Leu24-Leu119 of the 119-residue precursor (Q6UXB2), without the predicted signal peptide; the commercially available form; also called Leu24-Leu119 form of CXCL17; source: bought: R&D Systems; produced in E. coli"}},
  "target": "the molecule itself",
  "assay": "reducing SDS-PAGE and Western blot; serial dilutions of recombinant CXCL17 (24-119), 1.25-10 uM, on reducing 12% Bis-Tris SDS-PAGE, blotted with anti-CXCL17; bands of 14 kDa and 28 kDa read as monomer and dimer; 28 kDa species at 5 uM and above",
  "data": [
    {"protein": "B1", "values": [
      {"measurement": "ratio of monomer:dimer", "value": "3 monomer:dimer"},
      {"measurement": "stoichiometry N", "value": 2}
    ]}
  ]
}
